Values of other authors in patent US10023622B2, “Method of immunization for reducing toxic damaged caused by oligomeric form of the amyloid-beta protein with stable amyloid beta monomers and oligomers” (ALZINOVA AB, priority 2008, dated 2018).

Conditions: oxidized derivatives (cystines)

Substance	Fibrillation of oxidized disulphide mutants
F19C/A30C: previously published Aβ peptide disulphide mutant (Wetzel et al.)	all fibrillate
F19C/I32C: previously published Aβ peptide disulphide mutant (Wetzel et al.)	all fibrillate
F19C/L34C: previously published Aβ peptide disulphide mutant (Wetzel et al.)	all fibrillate
L17C/L34C: previously published Aβ peptide disulfide mutant (Shivaprasad and Wetzel)	all fibrillate
L17C/M35C: previously published Aβ peptide disulfide mutant (Shivaprasad and Wetzel)	all fibrillate
V18C/L34C: previously published Aβ peptide disulphide mutant (Wetzel et al.)	all fibrillate
